Assay [1] concerns the target α-galactosidase RhGal36A (Roseburia hominis A2-183). As to the kind of experiment: native gel or EMSA; native-PAGE on 4-15% Mini-PROTEAN TGX precast gels, 30 min at 150 V, Native PAGE marker; size of the oligomer from the band's apparent mass against the monomer's mass. On the technique in general: A gel shift assay detects complexes by their altered migration in electrophoresis.

Assay [2] addresses β-1,4 mannan-oligosaccharide phosphorylase RhMOP130A (Roseburia hominis A2-183). Described as above.

What is called stoichiometry N is the number of molecules, sites or subunits per partner or assembly. Take α-galactosidase RhGal36A (enzyme): the stoichiometry N in assay [1] stood at 4.

As for “β-1,4 mannan-oligosaccharide phosphorylase RhMOP130A (enzyme)”, the stoichiometry N in assay [2] was determined as 6.
